Assay results as given in patent US7122646.

Legend:
[1] = target: hen egg lysozyme (hen) (UniProt P00698); assay: phage ELISA with 50 µl phage supernatant, sheep anti-M13 detection; background 0.1
[2] = target: hen egg lysozyme (hen) (UniProt P00698); assay: BIAcore, HEL coated chip

Chain of UniProt P00698 (P00698 19-147 limits assumed): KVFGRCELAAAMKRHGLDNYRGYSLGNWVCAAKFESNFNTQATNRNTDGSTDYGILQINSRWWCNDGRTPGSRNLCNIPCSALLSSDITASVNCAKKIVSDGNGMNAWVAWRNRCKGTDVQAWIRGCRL

| Substance | absorbance signal [1] | koff [2] [s⁻¹] |
| --- | --- | --- |
| NQ11/D1.3/0 bispecific diabody displayed on the surface of phage (bispecific antibody) | 2.8 |  |
| bispecific NQ11/D1.3 diabody, construct VI, 5 residue linkers (bispecific antibody) |  | 0.0022 |
| chimaeric D1.3 Fab fragment |  | 0.003 |
